B1: Liprin-alpha-1 (Homo sapiens), Q13136 (parent)
chain: MMCEVMPTISEAEGPPGGGGGHGSGSPSQPDADSHFEQLMVSMLEERDRLLDTLRETQETLALTQGKLHEVGHERDSLQRQLNTALPQEFAALTKELNVCREQLLEREEEIAELKAERNNTRLLLEHLECLVSRHERSLRMTVVKRQAQSPAGVSSEVEVLKALKSLFEHHKALDEKVRERLRVALERCSLLEEELGATHKELMILKEQNNQKKTLTDGVLDINHEQENTPSTSGKRSSDGSLSHEEDLAKVIELQEIISKQSREQSQMKERLASLSSHVTELEEDLDTARKDLIKSEEMNTKLQRDVREAMAQKEDMEERITTLEKRYLAAQREATSVHDLNDKLENEIANKDSMHRQTEDKNRQLQERLELAEQKLQQTLRKAETLPEVEAELAQRVAALSKAEERHGNIEERLRQMEAQLEEKNQELQRARQREKMNEEHNKRLSDTVDKLLSESNERLQLHLKERMAALEDKNSLLREVESAKKQLEETQHDKDQLVLNIEALRAELDHMRLRGASLHHGRPHLGSVPDFRFPMADGHTDSYSTSAVLRRPQKGRLAALRDEPSKVQTLNEQDWERAQQASVLANVAQAFESDADVSDGEDDRDTLLSSVDLLSPSGQADAHTLAMMLQEQLDAINKEIRLIQEEKENTEQRAEEIESRVGSGSLDNLGRFRSMSSIPPYPASSLASSSPPGSGRSTPRRIPHSPAREVDRLGVMTLLPPSREEVRDDKTTIKCETSPPSSPRALRLDRLHKGALHTVSHEDIRDIRNSTGSQDGPVSNPSSSNSSQDSLHKAPKKKGIKSSIGRLFGKKEKGRPGQTGKEALGQAGVSETDNSSQDALGLSKLGGQAEKNRKLQKKHELLEEARRQGLPFAQWDGPTVVVWLELWVGMPAWYVAACRANVKSGAIMSALSDTEIQREIGISNPLHRLKLRLAIQEIMSLTSPSAPPTSRTTLAYGDMNHEWIGNEWLPSLGLPQYRSYFMECLVDARMLDHLTKKDLRGQLKMVDSFHRNSFQCGIMCLRRLNYDRKELERKREESQSEIKDVLVWSNDRVIRWILSIGLKEYANNLIESGVHGALLALDETFDFSALALLLQIPTQNTQARAVLEREFNNLLVMGTDRRFDEDDDKSFRRAPSWRKKFRPKDIRGLAAGSAETLPANFRVTSSMSSPSMQPKKMQMDGNVSGTQRLDSATVRTYSC
B2: E3 ubiquitin-protein ligase RNF31 (Homo sapiens), Q96EP0 (parent)
chain: MPGEEEERAFLVAREELASALRRDSGQAFSLEQLRPLLASSLPLAARYLQLDAARLVRCNAHGEPRNYLNTLSTALNILEKYGRNLLSPQRPRYWRGVKFNNPVFRSTVDAVQGGRDVLRLYGYTEEQPDGLSFPEGQEEPDEHQVATVTLEVLLLRTELSLLLQNTHPRQQALEQLLEDKVEDDMLQLSEFDPLLREIAPGPLTTPSVPGSTPGPCFLCGSAPGTLHCPSCKQALCPACDHLFHGHPSRAHHLRQTLPGVLQGTHLSPSLPASAQPRPQSTSLLALGDSSLSSPNPASAHLPWHCAACAMLNEPWAVLCVACDRPRGCKGLGLGTEGPQGTGGLEPDLARGRWACQSCTFENEAAAVLCSICERPRLAQPPSLVVDSRDAGICLQPLQQGDALLASAQSQVWYCIHCTFCNSSPGWVCVMCNRTSSPIPAQHAPRPYASSLEKGPPKPGPPRRLSAPLPSSCGDPEKQRQDKMREEGLQLVSMIREGEAAGACPEEIFSALQYSGTEVPLQWLRSELPYVLEMVAELAGQQDPGLGAFSCQEARRAWLDRHGNLDEAVEECVRTRRRKVQELQSLGFGPEEGSLQALFQHGGDVSRALTELQRQRLEPFRQRLWDSGPEPTPSWDGPDKQSLVRRLLAVYALPSWGRAELALSLLQETPRNYELGDVVEAVRHSQDRAFLRRLLAQECAVCGWALPHNRMQALTSCECTICPDCFRQHFTIALKEKHITDMVCPACGRPDLTDDTQLLSYFSTLDIQLRESLEPDAYALFHKKLTEGVLMRDPKFLWCAQCSFGFIYEREQLEATCPQCHQTFCVRCKRQWEEQHRGRSCEDFQNWKRMNDPEYQAQGLAMYLQENGIDCPKCKFSYALARGGCMHFHCTQCRHQFCSGCYNAFYAKNKCPEPNCRVKKSLHGHHPRDCLFYLRDWTALRLQKLLQDNNVMFNTEPPAGARAVPGGGCRVIEQKEVPNGLRDEACGKETPAGYAGLCQAHYKEYLVSLINAHSLDPATLYEVEELETATERYLHVRPQPLAGEDPPAYQARLLQKLTEEVPLGQSIPRRRK
partner: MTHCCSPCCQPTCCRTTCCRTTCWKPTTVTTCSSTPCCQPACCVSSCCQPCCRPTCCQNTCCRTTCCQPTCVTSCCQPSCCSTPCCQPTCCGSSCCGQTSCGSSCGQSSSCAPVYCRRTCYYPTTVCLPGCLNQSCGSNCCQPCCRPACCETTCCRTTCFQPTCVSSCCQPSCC
B3: Casein kinase II subunit alpha (Homo sapiens), P68400 (parent)
chain: MSGPVPSRARVYTDVNTHRPREYWDYESHVVEWGNQDDYQLVRKLGRGKYSEVFEAINITNNEKVVVKILKPVKKKKIKREIKILENLRGGPNIITLADIVKDPVSRTPALVFEHVNNTDFKQLYQTLTDYDIRFYMYEILKALDYCHSMGIMHRDVKPHNVMIDHEHRKLRLIDWGLAEFYHPGQEYNVRVASRYFKGPELLVDYQMYDYSLDMWSLGCMLASMIFRKEPFFHGHDNYDQLVRIAKVLGTEDLYDYIDKYNIELDPRFNDILGRHSRKRWERFVHSENQHLVSPEALDFLDKLLRYDHQSRLTAREAMEHPYFYTVVKDQARMGSSSMPGGSTPVSSANMMSGISSVPTPSPLGPLAGSPVIAAANPLGMPVPAAAGAQQ
partner: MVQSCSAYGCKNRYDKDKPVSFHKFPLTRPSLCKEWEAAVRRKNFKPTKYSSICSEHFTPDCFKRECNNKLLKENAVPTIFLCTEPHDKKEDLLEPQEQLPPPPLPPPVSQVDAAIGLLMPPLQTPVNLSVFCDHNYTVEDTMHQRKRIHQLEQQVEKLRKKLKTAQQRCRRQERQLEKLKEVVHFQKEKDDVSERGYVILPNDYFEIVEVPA
B4: Enhancer of mRNA-decapping protein 3 (Homo sapiens), Q96F86 (parent)
chain: MATDWLGSIVSINCGDSLGVYQGRVSAVDQVSQTISLTRPFHNGVKCLVPEVTFRAGDITELKILEIPGPGDNQHFGDLHQTELGPSGAGCQVGINQNGTGKFVKKPASSSSAPQNIPKRTDVKSQDVAVSPQQQQCSKSYVDRHMESLSQSKSFRRRHNSWSSSSRHPNQATPKKSGLKNGQMKNKDDECFGDDIEEIPDTDFDFEGNLALFDKAAVFEEIDTYERRSGTRSRGIPNERPTRYRHDENILESEPIVYRRIIVPHNVSKEFCTDSGLVVPSISYELHKKLLSVAEKHGLTLERRLEMTGVCASQMALTLLGGPNRLNPKNVHQRPTVALLCGPHVKGAQGISCGRHLANHDVQVILFLPNFVKMLESITNELSLFSKTQGQQVSSLKDLPTSPVDLVINCLDCPENVFLRDQPWYKAAVAWANQNRAPVLSIDPPVHEVEQGIDAKWSLALGLPLPLGEHAGRIYLCDIGIPQQVFQEVGINYHSPFGCKFVIPLHSA
partner: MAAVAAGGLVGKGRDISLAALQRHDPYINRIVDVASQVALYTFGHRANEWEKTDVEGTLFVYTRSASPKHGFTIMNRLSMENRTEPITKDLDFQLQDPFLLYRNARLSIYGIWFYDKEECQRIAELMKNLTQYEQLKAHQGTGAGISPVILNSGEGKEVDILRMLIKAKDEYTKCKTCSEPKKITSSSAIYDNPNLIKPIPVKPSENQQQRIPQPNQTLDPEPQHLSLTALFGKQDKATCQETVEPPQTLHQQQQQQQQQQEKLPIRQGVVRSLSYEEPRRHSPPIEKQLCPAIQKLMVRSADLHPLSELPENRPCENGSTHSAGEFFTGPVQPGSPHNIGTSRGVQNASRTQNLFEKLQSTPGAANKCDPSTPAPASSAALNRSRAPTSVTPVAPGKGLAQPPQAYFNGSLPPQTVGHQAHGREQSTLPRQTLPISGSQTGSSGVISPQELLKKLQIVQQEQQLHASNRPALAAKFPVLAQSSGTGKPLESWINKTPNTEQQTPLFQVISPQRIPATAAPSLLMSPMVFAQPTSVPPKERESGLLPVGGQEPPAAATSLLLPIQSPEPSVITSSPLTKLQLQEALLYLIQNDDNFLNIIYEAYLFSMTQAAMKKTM
B5: Keratin, type I cuticular Ha8 (Homo sapiens), O76015 (parent)
chain: MTSSYSSSSCPLGCTMAPGARNVSVSPIDIGCQPGAEANIAPMCLLANVAHANRVRVGSTPLGRPSLCLPPTCHTACPLPGTCHIPGNIGICGAYGENTLNGHEKETMQFLNDRLANYLEKVRQLEQENAELEATLLERSKCHESTVCPDYQSYFHTIEELQQKILCSKAENARLIVQIDNAKLAADDFRIKLESERSLRQLVEADKCGTQKLLDDATLAKADLEAQQESLKEEQLSLKSNHEQEVKILRSQLGEKLRIELDIEPTIDLNRVLGEMRAQYEAMLETNRQDVEQWFQAQSEGISLQDMSCSEELQCCQSEILELRCTVNALEVERQAQHTLKDCLQNSLCEAEDRFGTELAQMQSLISNVEEQLSEIRADLERQNQEYQVLLDVKTRLENEIATYRNLLESEDCKLPCNPCSTSPSCVTAPCAPRPSCGPCTTCGPTCGASTTGSRF
partner: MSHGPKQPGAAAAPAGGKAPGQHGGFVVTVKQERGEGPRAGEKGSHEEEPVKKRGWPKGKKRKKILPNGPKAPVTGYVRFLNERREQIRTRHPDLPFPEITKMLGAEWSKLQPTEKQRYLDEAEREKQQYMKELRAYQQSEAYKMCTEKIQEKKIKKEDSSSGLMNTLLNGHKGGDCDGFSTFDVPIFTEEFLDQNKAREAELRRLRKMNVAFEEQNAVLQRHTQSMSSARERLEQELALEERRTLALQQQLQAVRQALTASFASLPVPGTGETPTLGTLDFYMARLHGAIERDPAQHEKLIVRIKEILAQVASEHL

Variants of: B1
Conditions: with 2a5d_human PPP2R5D

Variant	effect of a mutation on the interaction
L330F	disrupting interaction strength

Variants of: B1
Conditions: with ccnh_human CCNH

Variant	effect of a mutation on the interaction
L330F	disrupting interaction strength

Variants of: B2
Conditions: with kra92_human KRTAP9-2, Q9BYQ4

Variant	effect of a mutation on the interaction
R646W	with no effect

Variants of: B3
Conditions: with thap1_human THAP1, Q9NVV9

Variant	effect of a mutation on the interaction
K198R	with no effect

Variants of: B4
Conditions: with dcp1b_human DCP1B

Variant	effect of a mutation on the interaction
F213L	with no effect

Variants of: B5
Conditions: with hm20b_human HMG20B

Variant	effect of a mutation on the interaction
N270K	with no effect

Reference: IntAct's records for PubMed 29892012
